Common to all, as to format: cell-based
One experiment addresses T1, human GLP-1 receptor (Homo sapiens, UniProt P43220).
T1 construct: expressed in transfected cells; host or cells: Chinese hamster ovary (CHO)
The experiment can be described thus: In vitro cAMP activity in human GLP-1 receptor-expressing CHO cells (LANCE cAMP kit). The settings on record: long-acting conjugate; relative titer from cAMP EC50 compared to human GLP-1. As for the experimental part:
(§1) In order to measure the activity of the triple agonists and long-acting conjugates thereof prepared according to Examples 1 and 2, the in-vitro cell activity was measured using cell lines transformed with GLP-1 receptor, glucagon (GCG) receptor, and GIP receptor, respectively.
(§2) The cell lines were transformed to express human GLP-1 receptor, human GCG receptor and human GIP receptor genes in Chinese hamster ovary (CHO), respectively, and are suitable for measuring the activities of GLP-1, GCG, and GIP. Therefore, the activity for each part was measured using each transformed cell line.
(§3) To measure the GLP-1 activity of the triple agonists and long-acting conjugates prepared according to Examples 1 and 2, human GLP-1 was diluted from 50 nM to 0.000048 nM by 4-fold serial dilution, and the triple agonists and long-acting conjugates thereof prepared according to Examples 1 and 2 were diluted from 400 nM to 0.00038 nM by 4-fold serial dilution. The culture medium was removed from the cultured human GLP-1 receptor-expressing CHO cells, 5 μl of each of the serially diluted materials was added to the cells, and then 5 μl of buffer containing cAMP antibody was added to the cells, followed by 15 minutes of incubation at room temperature. Then, cells were lysed by adding 10 μl of detection mix containing cell lysis buffer, and reacted at room temperature for 90 minutes. The cell lysate after the reaction had been completed, was applied to the LANCE cAMP kit (PerkinElmer, USA) to calculate the EC50 value through the accumulated cAMP, and then compared with each other.
Background: Time-resolved FRET reads energy transfer from a long-lived donor to a nearby acceptor.

Another experiment has as its target T2, human GCG receptor (Homo sapiens, UniProt P47871).
T2 construct: expressed in transfected cells; host or cells: Chinese hamster ovary (CHO)
The experiment can be described thus: In vitro cAMP activity in human GCG receptor-expressing CHO cells (LANCE cAMP kit). The settings on record: for In vitro activity compared to native-type peptide (%) vs Glucagon: long-acting conjugate, relative titer from cAMP EC50 compared to human GCG; for activity on the glucagon receptor: in words. As for the experimental part: as §1, §2
as §3, with “GCG” for “GLP-1”, “to” for “to 0.000048”

The target in a further experiment is T3, human GIP receptor (Homo sapiens, UniProt P48546).
T3 construct: expressed in transfected cells; host or cells: Chinese hamster ovary (CHO)
T3 sequence (P48546 22-466): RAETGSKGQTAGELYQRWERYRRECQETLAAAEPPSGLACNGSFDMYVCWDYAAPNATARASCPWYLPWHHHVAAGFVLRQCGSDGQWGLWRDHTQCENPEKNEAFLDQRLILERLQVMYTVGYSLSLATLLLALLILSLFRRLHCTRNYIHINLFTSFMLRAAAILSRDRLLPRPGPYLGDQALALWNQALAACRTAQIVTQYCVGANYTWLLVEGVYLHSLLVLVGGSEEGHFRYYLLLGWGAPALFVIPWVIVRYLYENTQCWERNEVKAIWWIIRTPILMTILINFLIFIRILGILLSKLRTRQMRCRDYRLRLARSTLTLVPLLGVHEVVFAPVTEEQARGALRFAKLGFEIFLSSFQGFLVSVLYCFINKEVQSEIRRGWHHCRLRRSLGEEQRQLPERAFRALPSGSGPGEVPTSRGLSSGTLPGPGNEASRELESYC
The experiment is described as follows: In vitro cAMP activity in human GIP receptor-expressing CHO cells (LANCE cAMP kit). The settings on record: long-acting conjugate; relative titer from cAMP EC50 compared to human GIP. As for the experimental part:
as §1, §2
as §3, with “measure the GIP activity of” for “measure the GLP-1 activity of”, “long-acting conjugates thereof prepared according” for “long-acting conjugates prepared according”, “2, human GIP was diluted” for “2, human GLP-1 was diluted”, “nM to […] by” for “nM to 0.000048 nM by”, “cultured human GIP receptor-expressing CHO” for “cultured human GLP-1 receptor-expressing CHO”

Bridge positions count the residues as written; N and C are the ends. Square brackets hold non-standard residues; d marks the D form. Ends that are not written are not given here. Aib = CC(C)(N)C(=O)O

T1 sequence (P43220 24-463): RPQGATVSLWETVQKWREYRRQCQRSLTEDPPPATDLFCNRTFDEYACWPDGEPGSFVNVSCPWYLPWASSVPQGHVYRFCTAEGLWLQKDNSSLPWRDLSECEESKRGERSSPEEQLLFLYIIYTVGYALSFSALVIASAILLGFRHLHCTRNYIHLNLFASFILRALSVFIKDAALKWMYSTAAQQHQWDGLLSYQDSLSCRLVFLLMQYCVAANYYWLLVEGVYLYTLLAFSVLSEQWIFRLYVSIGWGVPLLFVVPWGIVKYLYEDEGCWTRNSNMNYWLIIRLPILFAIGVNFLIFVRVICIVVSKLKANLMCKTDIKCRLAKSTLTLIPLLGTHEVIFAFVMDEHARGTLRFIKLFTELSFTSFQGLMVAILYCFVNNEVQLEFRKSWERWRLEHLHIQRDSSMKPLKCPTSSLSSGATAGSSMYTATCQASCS
T2 sequence (P47871 26-477): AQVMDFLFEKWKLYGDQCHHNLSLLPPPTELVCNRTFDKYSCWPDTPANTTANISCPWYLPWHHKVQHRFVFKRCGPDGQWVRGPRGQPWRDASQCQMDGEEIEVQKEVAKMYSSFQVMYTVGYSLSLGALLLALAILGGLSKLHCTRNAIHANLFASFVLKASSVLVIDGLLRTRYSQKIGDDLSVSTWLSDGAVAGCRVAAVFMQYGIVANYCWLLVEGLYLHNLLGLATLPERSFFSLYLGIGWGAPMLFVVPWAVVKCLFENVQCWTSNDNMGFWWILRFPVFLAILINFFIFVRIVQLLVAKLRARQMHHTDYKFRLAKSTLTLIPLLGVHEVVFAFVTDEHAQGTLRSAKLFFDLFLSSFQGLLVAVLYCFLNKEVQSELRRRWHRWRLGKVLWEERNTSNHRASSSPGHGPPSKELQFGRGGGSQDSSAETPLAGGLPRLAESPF

For the substance “21 (Y[Aib]QGTFTSDYSKYLDECRAKEFVQWLLDHHPSSGQPPPS; lactam 16-20) [compound 21]”, the “In vitro activity compared to native-type peptide (%) vs GLP-1” value (shortened to “In vitro activity … (%) vs GLP-1”) with human GLP-1 receptor is listed as 0.1%. For the same substance, in the experiment with human GCG receptor, the “In vitro activity compared to native-type peptide (%) vs Glucagon” value (from here on “In vitro activity … (%) vs Glucagon”) was found to be 1.6%. In addition, the “In vitro activity compared to native-type peptide (%) vs GIP” value (“In vitro activity … (%) vs GIP” below) with human GIP receptor is given as 0.2%.
On to “22 (Y[Aib]QGTFTSDYSKCLDEKRAKEFVQWLLDHHPSSGQPPPS; lactam 16-20) [compound 22]”, for which the “In vitro activity … (%) vs GLP-1” value with human GLP-1 receptor came to 0.1%. Moreover, the “In vitro activity … (%) vs Glucagon” value in the experiment with human GCG receptor was determined as 0.9%. In addition, in the experiment with human GIP receptor, the “In vitro activity … (%) vs GIP” value worked out at 0.5%.
Turning to “42 (Y[Aib]QGTFTSDYSKYLDEKRAKEFVQWLLDHHPSSGQPPPSC; lactam 16-20) [compound 42]”, the “In vitro activity … (%) vs GLP-1” value with human GLP-1 receptor came to 3.1%. In the experiment with human GCG receptor, the “In vitro activity … (%) vs Glucagon” value is on record as 23.1%. For the same substance, the “In vitro activity … (%) vs GIP” value with human GIP receptor turned out to be 1.2%.
On to “43 (Y[Aib]QGTFTSDYSKYLDEKRAKEFVQWLLDHHCSSGQPPPS; lactam 16-20) [compound 43]”, for which the “In vitro activity … (%) vs GLP-1” value in the experiment with human GLP-1 receptor turned out to be 2.1%. Besides, the “In vitro activity … (%) vs Glucagon” value with human GCG receptor amounted to 13.5%. The “In vitro activity … (%) vs GIP” value with human GIP receptor amounted to 0.6%.
Turning to “50 (H[Aib]QGTFTSDYSKYLDEKRAKEFVQWLLDHHPSSGQPPPSC; lactam 16-20) [compound 50]”, the “In vitro activity … (%) vs GLP-1” value with human GLP-1 receptor amounted to 15.4%. The “In vitro activity … (%) vs Glucagon” value with human GCG receptor amounted to 6.9%. In the experiment with human GIP receptor, the “In vitro activity … (%) vs GIP” value is listed as 0.7%.
Regarding “77 (Y[Aib]QGTFTSDYSKYLDEKAAKDFVQWLLDHHPSSGQPPPSC; lactam 16-20) [compound 77]”, in the experiment with human GLP-1 receptor, the “In vitro activity … (%) vs GLP-1” value amounted to 6.7%. For the same substance, the “In vitro activity … (%) vs Glucagon” value in the experiment with human GCG receptor turned out to be 1.7%. The “In vitro activity … (%) vs GIP” value with human GIP receptor is 6.6%.
For “96 (Y[Aib]QGTFTSDYSKYLDEKRAKEFVQWLLDHCPSSGQPPPS; lactam 16-20) [compound 96]”, in the experiment with human GLP-1 receptor, the “In vitro activity … (%) vs GLP-1” value came to 0.3%. The “In vitro activity … (%) vs Glucagon” value in the experiment with human GCG receptor was determined as 4.0%. The “In vitro activity … (%) vs GIP” value with human GIP receptor is given as 0.3%.
Take “YXQGTFTSDYSKCLDEKRAKEFVQWLLDHHPSSGQPPPS (Y[Aib]QGTFTSDYSKCLDEKRAKEFVQWLLDHHPSSGQPPPS; lactam 16-20) [Sequence number 22]”: the “activity on the glucagon receptor” value in the experiment with human GCG receptor is “very high activity”.
As to “YXQGTFTSDYSKYLDECRAKDFVQWLLDHHPSSGQPPPS (Y[Aib]QGTFTSDYSKYLDECRAKDFVQWLLDHHPSSGQPPPS; lactam 16-20) [Sequence number 66]”, the “activity on the glucagon receptor” value with human GCG receptor is “very high activity”.
For the substance “YXQGTFTSDYSKYLDECRAKEFVQWLLDHHPSSGQPPPS (Y[Aib]QGTFTSDYSKYLDECRAKEFVQWLLDHHPSSGQPPPS; lactam 16-20) [Sequence number 21]”, the “activity on the glucagon receptor” value with human GCG receptor is listed as “very high activity”.
Still for that read-out and setting: the entry for “YXQGTFTSDYSKYLDEKRAKEFVQWLLDCHPSSGQPPPS (Y[Aib]QGTFTSDYSKYLDEKRAKEFVQWLLDCHPSSGQPPPS; lactam 16-20) [Sequence number 97]” is “very high activity”; for “YXQGTFTSDYSKYLDEKRAKEFVQWLLDHCPSSGQPPPS (Y[Aib]QGTFTSDYSKYLDEKRAKEFVQWLLDHCPSSGQPPPS; lactam 16-20) [Sequence number 96]” it is “very high activity”.
With “YXQGTFTSDYSKYLDEKRAKEFVQWLLDHHCSSGQPPPS (Y[Aib]QGTFTSDYSKYLDEKRAKEFVQWLLDHHCSSGQPPPS; lactam 16-20) [Sequence number 43]”, in the experiment with human GCG receptor, the “activity on the glucagon receptor” value is given as “very high activity”.
For the substance “YXQGTFTSDYSKYLDEKRAKEFVQWLLDHHPSSGQPPPSC (Y[Aib]QGTFTSDYSKYLDEKRAKEFVQWLLDHHPSSGQPPPSC; lactam 16-20) [Sequence number 42]”, the “activity on the glucagon receptor” value in the experiment with human GCG receptor was “very high activity”.

The record behind these values is patent US20230381333A1, “PHARMACEUTICAL COMPOSITION COMPRISING GLUCAGON/GLP-1/GIP TRIPLE AGONIST OR LONG-ACTING CONJUGATE THEREOF FOR PREVENTING OR TREATING VASCULITIS” (HANMI PHARM CO., LTD., priority 2020, published 2023).
